Source: patent publication US11629193B2, “EGFR binding molecules” (F-STAR BETA LIMITED, priority 2016, dated 2023)

Assays:
[1] = test system: LL2.ova; experiment: In vivo skin toxicity and tumour growth, syngeneic mouse tumour model LL2.ova; conditions: 250 μg intraperitoneally on days 3, 6 and 10; eight mice each
Procedure: Skin toxicity has been observed with known anti-EGFR therapies, resulting in skin rash, lesions etc. In order to determine the toxicity of anti-EGFR Fcabs and mAb^2 containing anti-EGFR Fcs, an in vivo study was conducted. […] The tumour cells (5×10^5 cells) were implanted subcutaneously in the flank of female C57B16 (Charles River) mice aged 6-8 weeks and the mice were randomly assigned to four cohorts of eight mice each. […] The tumour volumes were measured with electronic callipers at days 10, 12, 14, 17, 19, 20 and 21. At day 16 pictures of the mice were taken to illustrate the observed skin toxicity.

[2] = test system: NCI-H1975 cells; experiment: Cell proliferation, NCI-H1975 cells stimulated with HGF; assay type: cell-based; conditions: NCI-H1975, antibodies 300 nM with and without erlotinib (2 μM)
Procedure: NCI-H1975 (ATCC CRL-5908) is a non-small cell lung cancer (NSCLC) cell line which expresses constitutively active mutated EGFR L858R and EGFR T790M (Kobayashi et al 2005). These mutations are acquired secondary mutations known to confer resistance to EGFR tyrosine kinase inhibitor (TKI) therapies in NSCLC patients. The NCI-H1975 cell line also expresses c-Met. […] The same method was used as in the U87MG assay described above, except that the NCI-H1975 cells were stimulated with HGF. One day before the treatment, the medium used was changed from containing 10% FBS to containing no serum. Treatments were added at various concentrations (0.003-300 nM) in the presence of 80 ng/ml HGF and incubated for 3 days at 37° C.

[3] = test system: phosphorylation of MAPK and Akt; experiment: Western blot of downstream signalling in U87MG cells; assay type: cell-based, human; conditions: 200 nM (200+200 nM for combination), HGF and EGF present
Procedure: (§1) Overnight cultures of the glioblastoma cell line U87MG (ATCC HTB-14) were moved from a medium with 10% FBS to a low serum medium with 0.1% FBS to optimise sensitivity to ligand stimulation. The cells were incubated overnight. […] Controls without antibody treatment were included, with and without growth factor stimulation. The treated cells were lysed using lysis buffer (10 mM Tris® pH7.5, 150 mM NaCl, 1 mM EDTA) comprising 1:100 protease inhibitor cocktail (Calbiochem, 539131) and 1:100 Phosphatase inhibitor cocktail (Calbiochem, 524625) and the lysates collected for analysis.
(§2) Lysate samples were subjected to standard western blotting analysis using a 4-12% Bis-Tris® protein gel (ThermoFisher, NP0322BOX) and transferred to a nitrocellulose membrane (ThermoFisher, IB301001). The membrane was blocked with 5% Marvel milk/TBST and then probed for phospho-c-Met using a rabbit monoclonal antibody specific for c-Met phosphorylated at Tyr1234/1235 (Cell Signaling, 3077), phospho-EGFR using a mouse monoclonal antibody specific for EGFR phosphorylated at Tyr1068 (Cell Signaling, 2236), phospho-MAPK using a mouse monoclonal antibody specific for p44/42 MAPK (ERK1/2) phosphorylated at Thr202/Tyr204 (Cell Signaling, 9106), and phospho-Akt using a rabbit monoclonal antibody specific for Akt phosphorylated at Ser473 (Cell Signaling, 9271). […]

[4] = target: HGF (Homo sapiens, UniProt P14210); experiment: Free HGF in culture media of U87MG cells (HGF Human ELISA Kit); assay type: cell-based; set-up: examined in U87MG cells that secrete HGF; endogenous in cells; host or cells: U87MG; conditions: 30 nM, 4 days, compared to controls
Procedure: It was hypothesised that internalisation of HGF by anti-EGFR/HGF mAb^2 leads to reduced level of HGF in the system. To test this hypothesis, the change in level of free HGF caused by incubation with anti-EGFR/HGF mAb^2 was examined in U87MG cells that secrete HGF. U87MG cultures were incubated with different treatments at 30 nM for 4 days at 37° C. […] On day 4, the media from each cell culture were collected for HGF level analysis. HGF concentration was measured using HGF Human ELISA Kit (ThermoFisher, KAC2211) following the manufacturer's protocol. Using monoclonal anti-HGF antibodies, the free HGF in media was detected (free HGF was defined as HGF in the media which was bound by detection antibodies).

[5] = test system: phosphorylation of c-Met and EGFR; experiment: Western blot of receptor phosphorylation in U87MG cells; assay type: cell-based, human; conditions: 200 nM, 20 min
Procedure: as §1, §2

Sequence of HGF (P14210 32-728): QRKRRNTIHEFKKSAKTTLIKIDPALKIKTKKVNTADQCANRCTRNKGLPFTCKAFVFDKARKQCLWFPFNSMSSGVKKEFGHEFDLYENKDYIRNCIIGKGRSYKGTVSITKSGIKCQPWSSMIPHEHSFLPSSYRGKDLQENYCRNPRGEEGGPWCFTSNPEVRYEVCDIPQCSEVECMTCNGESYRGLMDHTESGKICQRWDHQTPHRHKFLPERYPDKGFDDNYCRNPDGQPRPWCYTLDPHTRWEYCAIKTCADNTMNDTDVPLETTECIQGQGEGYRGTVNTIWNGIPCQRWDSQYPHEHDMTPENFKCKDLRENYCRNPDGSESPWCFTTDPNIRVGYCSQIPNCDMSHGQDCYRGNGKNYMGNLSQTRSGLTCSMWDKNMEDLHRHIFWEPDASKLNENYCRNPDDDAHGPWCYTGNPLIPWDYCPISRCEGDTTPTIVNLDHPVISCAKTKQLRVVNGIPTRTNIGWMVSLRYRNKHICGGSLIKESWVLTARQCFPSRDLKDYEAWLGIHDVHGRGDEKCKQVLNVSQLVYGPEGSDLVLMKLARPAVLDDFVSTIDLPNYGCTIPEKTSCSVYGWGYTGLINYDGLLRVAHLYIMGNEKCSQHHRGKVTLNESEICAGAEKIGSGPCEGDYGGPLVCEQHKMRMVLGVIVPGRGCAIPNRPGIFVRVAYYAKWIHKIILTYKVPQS

9D9m2a: anti-mouse CTLA4 antibody: 9D9 VH in mouse IgG2a backbone, heavy chain SEQ ID NO: 52, light chain SEQ ID NO: 50 [Fcab 9D9m2a, reference compound]
Mice showing hair loss [1]: 0/8 | Skin lesions [1]: 0/8

C#Cc1cccc(Nc2ncnc3cc(OCCOC)c(OCCOC)cc23)c1 [erlotinib, reference compound]
reduction of cell proliferation induced by HGF [2]: No effect

rilotumumab [reference compound]
block of phosphorylation of MAPK and Akt [3]: unable to block the phosphorylation of MAPK and Akt | concentration of free HGF in the media [4]: significant decrease in the concentration of free HGF in the media | block of phosphorylation of c-Met by HGF [5]: able to block the phosphorylation of c-Met by HGF
